Consider 14 molecules from patent publication US20140287419A1, “Compositions Having Dicamba Decarboxylase Activity and Methods of Use” (priority 2013, published 2014).

A short description of the data set: 14C assay with IPTG-induced recombinant E. coli cells (14CO2 capture from [14C]-carboxyl-labeled dicamba). The settings on record: for Dicamba Decarboxylase Activity: IPTG-induced recombinant E. coli cells, [14C]-carboxyl-labeled dicamba, 14CO2 capture; for Enzymatic Detection level: dicamba decarboxylation activity of the protein of the given SEQ ID NO.

B1: 92 (protein, listed as Chitinophaga pinensis)
chain: MARIVTLEEHVSFPEMTALLPEEILKNRKQSGAALQMQEKLADITGERLTSMKAAGISMQVLSVENTDVYLLPDSLAPAFAAKYNDLLADKISSHSDAFAAFAMLPMTVPEAAADELERAVKTHGFCGAMIKGLINGVFLDAPKFAPVFACAEKLGVPLYIHPGIPPKEVIDAYYSNVGDTKGPNEAIACYGWGWHSETAIHILRLLAAGIFDKYPQLNIIIGHMGEMLPMMWERSNRVFQPGNNGKNQRTLIETFRKQLYITTSGIFTQPPLQIAIDTIGIDNILFSIDYPFSSNQMGIDFLTKAALPAEQLAKMAHGNADRILKF
As for B1, the “Dicamba Decarboxylase Activity” value is “Yes” and the “Enzymatic Detection level” value was “High”.

B2: 85 (protein, listed as Maritimibacter alkaliphilus)
chain: MAADRKPGLVSVEEGFMIPEVVAELSRIAGGVPSMKSGPIAGPFMDDLLDIGKGRVARMDADGVAVQILALAAPGVQKFDPDTALALSRLTNDRLAEAIAAHPARFGGLAAAPPQAAREGAKELDRAITTLGLNGLIVNSHTNDLYLDDPSFWPLLEAAEALDVPVYLHPREPAAGIEGGLMAMTGFTVGWAYAVETGTHLLRMIAAGVFDRFPRLRIVLGHLGEMIPFMLDRIDNRYPFEMGVTGAKPLPRKPSDYFRDHVTVATSGMNFNAPMRAAIEVLGADKVMFAADYPMERQDEEVAKFAALDLTPDERKRIGEDNARRVFGL
For the molecule B2, the “Dicamba Decarboxylase Activity” value is on record as “Low” and the “Enzymatic Detection level” value is reported as “Low”.

B3: 90 (protein)
chain: MAATIDRVLYLGNATQRRYTSATVSVPRIFGKVALEEHVGTSIWAKYNLTPPANAVVGVLNRPPTLPNTLDTIARLDDINGRLSSMNHSGIGYVIVSLSSPGIQGVHDTALAIKFSTDINDELYLKYANAYPDKFAFFATVPMQDPVAAASELERAVSLLGAKGAAINGYTDIGPPGNSTTRYLDDPINAPFWSKVAALNVPIYLHPRAPPPSQQLVYNYPNNSLSAYPGLVTGGFAYGAETAVHALRLMLSGLFDTHPNIQIILGHAAEGLPFLIHRSDTQLAAEVPGTNGPYKRPLRYYLRNNFYATLSGVRRLSTTQCTLAEMGEERVLFSVDYPFQSNEDAADWFDGVEGMSVETKRKVARGNARRLFNLTVDLDERQIDGDFM
modifications: Pyrenophora tritici-repentis
As for B3, the “Dicamba Decarboxylase Activity” value is “Low” and the “Enzymatic Detection level” value is “Low”.

B4: 93 (protein, listed as Mucilaginibacter paludis)
chain: MAKYGKHITINKNMRIVTLEEHISFPEMADQIPKAALGSFGRSEAMQRIAPKLADITGERLKSMDANGISMQVLSVDSSGVNLLSPQQGPAFATQYNDLIANRIAGFEKRFTAFAHLPMTAPFAAADELERAVKEHHFCGAMIRGLTGDQFLDHPQFAPIFERAQKLDVPIYLHPGLPPKGVADIYYSGLPNYSGMAEALACYGWGWHSETALHVLRLLFSGIFDQYPKLKLVIGHMGEMLPMMMARSEKAFKPGNGGANVRTLTDTFRSQVYLTTSGFFTQPPLKIALDTFGIDHVMFSVDYPFSTNEMGIEFLNEIDLPDEEVARIAHGNADKLLNLKA
As to B4, the “Dicamba Decarboxylase Activity” value was “Low” and the “Enzymatic Detection level” value is “Low”.

B5: 81 (protein, listed as Verticillium dahliae)
chain: MAASTKPKVVDIHTHMYPPSYIDILTSRTAIPVVRTFPQAADPRLILLDAEQQALDAALQDPTAKPPGRPLTSHYASLDQKIHFMDTHSIDISVVSLANPWLDFIEPKEAAATARSVNDEFEAMCASQPGRLFFFAALPLTAPLPALLEAVRHVAELEHCRGVILGTSGLGSGLDDPELVPVLEAVAAAALTVFLHPHYGLPNDVWGPRASAEYGHVLPLALGFPMETTIAVARMYLAGVFDRVPALRMLLAHSGGTLPFLAGRIESCILHDGQLVAEGKVGAARRTIWDVLREQVYLDAVIYSEIGLKAAIAASGGADRLMFGTDHPFFPPLGTDEQAKKESRINAGGSRPMITGNAMINGHGGLCNHITQSDYQDVVL
B5: the “Dicamba Decarboxylase Activity” value was “High” and the “Enzymatic Detection level” value is recorded as “High”.

B6: 89 (protein, listed as Erwinia billingiae)
chain: MATNRRDFLKNATAVMAGSTVFAGSSHFASAAAVEPAAVQPPRRIIALEEHFMLPEFVGYLHETQQNLRNGLVDKVVTPLSDFGKGRLEIMDKNGVDFAVLSLSGPGVQAEPDRVKAVRLARYANDKLATEMQKNPRRYGGFAHLAMQDPLAAANELERCVKQLHMQGGMINGETDGLYLDDRRYDVFWERVEALNVPIYIHPGNPPDYPHMFAGHPEMWGPVWSWAVETCSHALRLIFSGTFDRYPGARVILGHMGETLPIQLWRLDSRYQIANQTFAIKHPPSWYAKKNITITTSGVCNDAALRCALDSMGSENVMFSIDYPFESTEIAVNWLKTANITEQERNAVAWGNATSILRLGA
B6: the “Dicamba Decarboxylase Activity” value is “High” and the “Enzymatic Detection level” value is “High”.

B7: 86 (protein, listed as Sphingopyxis alaskensis)
chain: MALGASVASREASAQMAKAPMRKIATEEAFATPELAKAWLEIARSEPNSSLDIPTGILSIFDNPRPGSNQDRFRRQLLDVDAERIRDMDEAGVDMQLLSVTIPGVQIFEPARAGELAVTTNDHLAAAIARRPTRFAGLACFAPHDPVQATREMERAVNALGLKGFIVNSHTQDLYLDDPRFAPVLEAAQSLDCPIYLHPRAPSNGMAAPFRDYSMGGSIWGFGVEAGTHAVRMILSGVFDRYPRLRIVLGHMGEALPFWMWRLDHMAARRAKDGRMKPLSLAPSEYFKRNFAVTTSGFESPDVLDLVIKVAGIENIMWAIDYPYESSRDAVTFIEGADLTASQRASIFHRNAVRHFRLS
On to B7, for which the “Dicamba Decarboxylase Activity” value is listed as “Low” and the “Enzymatic Detection level” value is given as “Low”.

B8: 7 (protein, listed as Legionella pneumophila)
chain: MAIVDFETHFITEACIDYLTQRQEVPKLVPELNGAYTMCFTPDVSLFHTSALMEELLSLNEQRLAIMDQAGVTIQVLSLTTINGIDSCPGDENKSTALAREVNDQLYSAIQRHPERFKGFASISPYDVKEGVKELERAISQLGFVGWLTHSNFGEDNYLDDKTYWPLLEAAEGLNIPIYLHPNVPIMREFGKYGFALGGSALGFEFDTALCLMRMILGGVFDAFPKLKIMLGHLGETMPFLMERLDHLYRIPDLKAYRPSIQRIPSEVLRQNVYITTSGRFFVPALRYVLEVMGEDRVLFASDYPMESLLDATRFIQDSDLSNQTKQKIFSINAKNLNLI
On to B8, for which the “Dicamba Decarboxylase Activity” value is on record as “No” and the “Enzymatic Detection level” value is reported as “No”.

B9: 87 (protein, listed as Novosphingobium sp.)
chain: MASDIATAADLQTGGRQGYLRIATEEAFATRDQIDVYLRMVRDGTADRGMTSLWGFYAQSPSARATQIIERLLDLGEQRLADMDAAGIDKAVLALTSPGVQPLLDMEEARRIAGNANDRLAERCAAHPDRFIGMTAVAPQDPQWSAREILRGATQLGFKGVQINSHTQGRYLDEPFFDPIFRALGDVGQPLYIHPGTPPDSMIGPLLDAGLDGAIYGFGVETGMHLLRLITAGIFDRYPDLQIMVGHMGEALPYWLYRLDYMHQAGIRSQRYERMRPLKRTIAGYFRSNVLVTCSGMAWEPAIQFARQVMGEDRVMYAMDYPYQYEADEVRALDVMDLSPESKRKFFQTNAERWFDL
Turning to B9, the “Dicamba Decarboxylase Activity” value is “High” and the “Enzymatic Detection level” value is “High”.

B10: 91 (protein, listed as Botryotinia fuckeliana)
chain: MASFVCNFGKAALATLLLTPSISAADYTPQETVLNSGRPTFYDASTSIPGKIALEEHVGNDLLNGLYTVPYYPNTNEPQYSDSVYIADVGEKMLDIPSRIANMDAANISISVLTFGGPGIQGVFNATYATYAAGYVNDYLYKNYKNNANYTGRFEFWCSNALQEPSKAATELERCVKELGGVGSFVGGYTNNGGINGTANDIVYLDDPSMEPFLEKVVELDVPIYLHPRMPAPSQLLSVKGYEFLGSSPWGFSSETGAHALRLMVSGTLDKYPTLKIVLGHCGEGLPFFLPRIDQRLRHFKKELFNNTLTMEEYWLRNFYVTTAGVQDAGTLVDTIKRTGEDRVMFSVDYPFEDTVEIAGWFDRLEMNTLTKTKLAYENAKALLKLTCYVDAEKRPRIFNKHHVDDIIKHTHSPCIWTLFH
As for B10, the “Dicamba Decarboxylase Activity” value was “Low” and the “Enzymatic Detection level” value is listed as “Low”.

B11: 84 (protein, listed as Mycobacterium rhodesiae)
chain: MASLIALEEHYAWDPASEGNVVATWLRANNGVAYDRLYDRGPLRIEQMDAAGIDFQILSLFDPGVQDEVDAVRAVDLARRANDDLAESVRANPSRFGGFATLATQQPDAAVAEFDRAVTELGLVGGLINGHCQGRYLDDPAYEALFSRAEALGAPIYLHPTTPHPAVMDAWFAPYVGDGLHLASWGFAAETGTHVLRLIYSGLFDKFPRLQMIIGHLGEMLPFAAYRIDRYYGLGGGGTGHTLQHLPSDYLRNNFHVTTSGNFCSPALDCTLDVMGADRVMFSVDYPMDDNQTGADFLASYPMDDTNRRKVASENALRLFGDRIPAALRN
Regarding B11, the “Dicamba Decarboxylase Activity” value was “Low” and the “Enzymatic Detection level” value was “Low”.

B12: 83 (protein, listed as Mycobacterium rhodesiae)
chain: MALIALEEHYAWSPVSAGNVVGSWLETHNVTAYQRLYDRGPLRLEQMDAAGIDFQILSLFDPGVQDDDDTARAVENARRANDDLAETVRAAPDRFGGFATLAPQDPDAAAAELERAVGELGLVGGLINGHTHGRYLDDPAYLGLFECAQRLGVPIYLHPTTPHPAVMDAWFAPYVKDGLHLASWGFAAETGTHALRLIYSGLFDTFPRLQMILGHLGEMLPYAAYRIDRYYGLGGGDDGGRLARLPSEYLRDNFHVTTSGNFNPVAFACALDVMGPDRLMFSVDYPMDDNVTGAEFLRNLEVDDDVRRKVAGENALQLFGDKIPRR
As to B12, the “Dicamba Decarboxylase Activity” value was “Low” and the “Enzymatic Detection level” value is recorded as “Low”.

B13: 82 (protein, listed as Rhodopseudomonas palustris)
chain: MAQNETPVIAIEEHYWDPEMVARFPAGENASPFSTLLTELGDVRLRAMDEAGIDVQVLSHGAPAAQKLPPDVAPELTRRVNDRLAEACARFPNRFAAFAALPTPAPEAAARELERCVRDLGFKGAMIHGLTNGLFIDDKRFWPIFEVAEKLDVPIYLHPSVPHADVTRYYYDDYAREFPTVIRPAWGFTVETATQAIRLILSRALESYPRLQIILGHLGETLPFLLWRINQALARPGQTPLDFRKQFCDHFHVTTSGFFSTPALICTMLELGIDRIMFAVDYPYVVNRDGTDWVQQLQISPDDKRKLVGGNARRLLKL
Consider B13, for which the “Dicamba Decarboxylase Activity” value is reported as “Low” and the “Enzymatic Detection level” value is on record as “Low”.

B14: 88 (protein, listed as Starkeya novella)
chain: MARKIALEEHFTTPELAGKYVARPTQSDALFADIERRLADFDELRLEMMDRAEIDLMVLSVTTPGVQGVRDTGEAIRLARGANDFLAREVQKRPSRYAGFAHLAMQDAEAAATELERAVRELGFRGALINGQTNGHYLDEDQYAPFWERVQELDVPVYLHPGNMADSPAMFAHRPELGGPIWAWTAETAAHALRLVFGGTFTRFPGAKVILGHMGETLPFLLWRLDSRREFDLGEKLAPDALPSAIIKRNIAVTTSGVCDPAPLVAALQALSDDNVMFSVDYPYEDPQLASKFIETAPIGEETRAKVCHGNAERLLGL
For the molecule B14, the “Dicamba Decarboxylase Activity” value is “High” and the “Enzymatic Detection level” value is recorded as “High”.
